Measurements: patent US20150004133A1, “Compositions And Methods For Treating Steatohepatitis, Liver Fibrosis, and Hepatocellular Carcinoma (HCC)” (The Regents of the University of California, priority 2013, published 2015)

How the values were obtained:
[1] = system: Stat3; experiment: Nuclear translocation of Stat3 in HSCs (fluorescent microscopy); assay type: cell-based, mouse; details: primary murine HSCs, IL-17A 10 ng/ml
Text: (§1) FIG. 9. […] Representative images are shown using ×20 objective. […] Deletion of Stat3 in HSCs was achieved by crossing GFAP-Cre mice×floxed Stat3^f/f mice=GFAP^Stat3−/− mice. […] Nuclear translocation of Stat3 (but not phosphor-Smad2/3) was detected in wild type HSCs but not in Stat3-deficient HSCs. Representative images are shown using ×20 objective. (E) IL-17-dependent collagen-α1(I) expression is impaired in Stat3-deficient HSCs.
Next, phosphorylation of IL-17 target proteins in KC and HSCs was assessed in vitro (FIG. 18E). […] While the IL-17 signaling pathway in macrophages is characterized^8,22 (and FIG. 18F), IL-17 signaling in HSCs is unknown. […] Thus, similar to macropahges^8,22, NF-κB and Stat3 are downstream targets of IL-17 signaling in HSCs. While NF-κB signaling is required for survival of activated HSC^23, Stat3 may mediate HSC activation by stimulating collagen production.

[2] = system: primary wild type HSCs and Stat3-deficient HSCs; experiment: IL-17A-dependent collagen-α1(I) expression in wild type and Stat3-deficient HSCs; assay type: cell-based, mouse; details: IL-17A 10 ng/ml, 8 h
Text: as §1
HSCs are the only liver cell type that expresses GFAP^1. The role of Stat3 in IL-17A-mediated collagen-α1(I) expression was tested in primary wild type HSCs and Stat3-deficient HSCs, isolated from GFAP^Stat3−/− mice (GFAP^Cre mice×floxed Stat3^f/f mice, FIG. 9D). […] Next, the relevance of IL-17 signaling was accessed in human HSC cell lines.

[3] = system: primary murine HSCs; experiment: Collagen-α1(I)-GFP expression in primary HSCs from Col-GFP reporter mice; assay type: cell-based, mouse; details: 48 hours; for expression of GFP (percent of cells upregulated collagen-α1(I)-GFP): IL-17A 10 ng/ml
Text: as §1
For this purpose, primary HSCs were isolated from Col-GFP reporter mice (expressing GFP under collagen-α1(I) promoter) or Col-GFP^IL-17RA−/− mice (generated by crossing IL-17RA^−/− mice with Col-GFP mice, FIG. 9B).

[4] = system: LX-2 human HSC cell line; experiment: Fibrogenic gene mRNA induction in the LX-2 cell line (RT-PCR); assay type: cell-based; details: LX-2, 10 ng/ml, 72 h, compared with non-stimulated cells
Experimental: RT-PCR and real time quantitative PCR. […] Methods.
mRNA was isolated and RT-PCR was performed using ABI 7000 sequence detection system (Applied Biosystems), specific primers and SYBRGreen. Ct values of each sample were normalized to 18s mRNA expression. Values were expressed as fold induction in comparison with untreated or sham controls.

[5] = system: BDL-operated mice; experiment: BDL-induced liver fibrosis in mice with daily administration of IL-22 or IL-17E; assay type: in vivo; details: 0.5 μg/mouse daily for 7 days, compared to BDL wt mice+PBS
Experimental: FIG. 11. IL-23 and IL-22 have opposing roles in liver fibrosis. […] Quantification of Sirius Red and α-SMA staining, mRNA expression is shown (p<0.05, compared to BDL wt mice). mRNA expression is fold induction compared to oil-control Wt→wt mice. (D) The percent of inhibition of liver fibrosis was calculated for BM chimeric mice in response to liver injury (in comparison Wt→wt mice, 100%, p<0.01) based on Sirius Red and α-SMA expression. […] Increased fibrosis was detected in IL-22^−/−→wt mice. (E) Administration of IL-22 and IL-17E attenuates liver fibrosis. BDL-operated mice were daily treated with IL-22 (0.5 μg/mouse, n=4), IL-17E (0.5 μg/mouse n=5), or vehicle (PBS) for 7 days, tissues were analyzed by Sirius Red, and α-SMA staining; mRNA expression is shown (p<0.05, compared to BDL wt mice+PBS).
Liver injury was induced in mice by […] with CCl4 (1:4 dilution in corn oil, 200 μl×12 injections^2) or by BDL (3 weeks)^2.
The role of IL-22 and IL-17E in liver fibrosis was examined in BDL-operated mice, injected with IL-22 (0.5 μg/mouse) or IL-17E (0.5 μg/mouse, FIG. 11E).

IL-17A: IL-17 family cytokine mainly produced by CD4+ Th17 cells; purchased from R&D
time to nuclear translocation of Stat3 in HSCs [1]: 10 to 15 min | collagen-α1(I) expression ([2]; Stat3-deficient HSCs from GFAP Stat3−/− mice): failed to induce | collagen-α1(I) expression ([2]; wild type (Stat3f/f) HSCs): induced | expression of GFP (percent of cells upregulated collagen-α1(I)-GFP) ([3]; IL-17RA−/− HSCs (Col-GFP IL-17RA−/−)): 5±2% | expression of GFP (percent of cells upregulated collagen-α1(I)-GFP) ([3]; wild type Col-GFP HSCs, baseline 1±0%): 34±7%

TGF-β1: fibrogenic cytokine used as a control; purchased from R&D [reference compound]
expression of collagen-α1(I)-GFP ([3]; both wild type and IL-17RA−/− HSCs, TGF-β1 3 ng/ml, control): strongly induced

B1: IL-17F: IL-17 family cytokine; purchased from R&D (protein, UniProt Q96PD4 31-163, looked up)
Interleukin-17F: RKIPKVGHTFFQKPESCPPVPGGSMKLDIGIINENQRVSMSRNIESRSTSPWNYTVTWDPNRYPSEVVQAQCRNLGCINAQGKEDISMNSVPIQQETLVVRRKHQGCSVSFQLEKVLVTVGCTCVTPVIHHVQ
induction of Col-α1(I) mRNA [4]: 7 fold | induction of α-SMA mRNA [4]: 6 fold

B2: IL-22: protein that in humans is encoded by the IL22 gene; cytokine purchased from R&D (protein, UniProt Q9GZX6 34-179, looked up)
Interleukin-22: APISSHCRLDKSNFQQPYITNRTFMLAKEASLADNNTDVRLIGEKLFHGVSMSERCYLMKQVLNFTLEEVLFPQSDRFQPYMQEVVPFLARLSNRLSTCHIEGDDLHIQRNVQKLKDTVKKLGESGEIKAIGELDLLFMSLRNACI
reduction of Sirius Red staining [5]: 3 fold | reduction of mRNA for Col-α1(I) [5]: 3 fold | reduction of mRNA for α-SMA [5]: 2.5 fold

B3: IL-17E: Interleukin 25; cytokine that binds to IL-17RA and IL-17RB heterodimers (protein)
chain: YSHWPSCCPSKGQDTSEELLRWSTVPVPPLEPARPNRHPESCRASEDGPLNSRAISPWRYELDRDLNRLPQDLYHARCLCPHCVSLQTGSHMDPRGNSELLYHNQTVFYRRPCHGEKGTHKGYCLERRLYRVSLACVCVRPRVMG
reduction of Sirius Red staining [5]: 3 fold | reduction of mRNA for Col-α1(I) [5]: 3 fold | reduction of mRNA for α-SMA [5]: 2.5 fold
